Laboratory results published in paper PMC6721692, “Extracellular Juxtamembrane Motif Critical for TrkB Preformed Dimer and Activation” (Cells, 2019).

Molecular target: the molecule itself
Assay: native gel or EMSA; native PAGE (no SDS, no β-ME) of lysates of CHO-TrkBdelECD365-eGFP cells treated with vehicle, BDNF or MM12 (1.0 nM, 37 °C); Western blot with MM12

B1: TrkBdelECD365-eGFP (human truncated TrkB lacking the ECD up to residue 365, EJM retained) (domain or fragment)
chain: not shown
notes: EJM, transmembrane and intracellular parts retained; amplified from pGFP-hTrkB with the printed primers; The signal peptide of the vector pGFP-hTrkB is not described; also called hTrkBdelECD365-eGFP; TrkB lacking ECD365; source: CHO cells, stably transfected (CHO-TrkBdelECD365-eGFP), in lysate; not shown: eGFP, C-terminal, kept
stoichiometry N: 2
